Residue numbers refer to the chain shown, from its start. In names and notes the source's numbering stands.

The target of assay [1] is T1, cynomolgus monkey FcγRIIIaS extracellular domain, C-terminal His-tag (cynomolgus monkey, UniProt Q8SPW2 21-206 at identity 1.00)).
T1 construct: also called cyno FcγRIIIaS; cynoFcγRIIIaS
T1 chain: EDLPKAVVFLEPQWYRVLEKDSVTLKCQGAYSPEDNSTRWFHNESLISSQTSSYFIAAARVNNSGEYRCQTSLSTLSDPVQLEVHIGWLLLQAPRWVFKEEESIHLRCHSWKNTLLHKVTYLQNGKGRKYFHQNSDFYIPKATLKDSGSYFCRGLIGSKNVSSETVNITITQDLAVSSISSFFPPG
In words: SPR (Biacore); KD of SG1 / KD of variant.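 Note: relative to parent M103205H795-SG1 carrying the SG1 human heavy chain constant region.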 On the procedure: (§1) The kinetic analysis of interactions between these antibodies and FcγR was carried out using BIACORE® T200 or BIACORE® 4000 (GE Healthcare). HBS-EP+ (GE Healthcare) was used as the running buffer, and the measurement temperature was set to 25° C. A chip produced by immobilizing Protein A. Protein A/G or mouse anti-human IgG kappa light chain (BD Biosciences) onto a Series S Sensor Chip CM4 or CM5 (GE Healthcare) by the amine-coupling method was used. […] After the measurement, the antibody captured on the chip was washed off by allowing reaction with 10 mM glycine-HCl, pH1.5 and 25 mM NaOH so that the chip was regenerated and used repeatedly. The sensorgrams obtained as measurement results were analyzed by the 1:1 Langmuir binding model using the BIACORE® Evaluation Software to calculate the binding rate constant ka (L/mol/s) and dissociation rate constant kd (l/s), and the dissociation constant KD (mol/L) was calculated from these values. […] Regarding such interactions, KD values were calculated using the following 1:1 binding model described in BIACORE® T100 Software Handbook BR1006-48 Edition AE.
(§2) The behavior of interacting molecules according to the 1:1 binding model on BIACORE® can be described by Equation 1: Req=C·R max/(KD+C)+RI, wherein, Req is a plot of steady-state binding levels to analyte concentration. C is concentration, RI is bulk refractive index contribution in the sample, and Rmax is analyte binding capacity of the surface. When this equation is rearranged, KD can be expressed as Equation 2: KD=C·Rmax/(Req−RI)−C. KD can be calculated by substituting the values of Rmax, RI, and C into Equation 1 or Equation 2. From the current measurement conditions, RI=0, C=2 μmol/L can be used.
In general terms: SPR reads the build-up and loss of mass on a sensor chip optically.

Assay [2] concerns the target T2, cynomolgus monkey FcγRIIb extracellular domain, C-terminal His-tag (cynomolgus monkey).
T2 construct: also called cyno FcγRIIb; cynoFcγRIIb
T2 chain: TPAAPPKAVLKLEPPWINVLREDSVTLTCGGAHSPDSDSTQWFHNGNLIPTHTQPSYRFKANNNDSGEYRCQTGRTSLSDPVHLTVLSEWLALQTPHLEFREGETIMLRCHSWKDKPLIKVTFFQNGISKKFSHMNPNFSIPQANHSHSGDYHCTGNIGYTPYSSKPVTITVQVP
In words: SPR (Biacore); KD of SG1 / KD of variant.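 Note: relative to parent M103205H795-SG1 carrying the SG1 human heavy chain constant region.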 On the procedure: as §1, §2

Assay [3] concerns the target T3, human FcγRIIb extracellular domain, C-terminal His-tag (human, UniProt P31994 43-217).
T3 construct: also called human FcgRIIb; FcgRIIb
T3 sequence: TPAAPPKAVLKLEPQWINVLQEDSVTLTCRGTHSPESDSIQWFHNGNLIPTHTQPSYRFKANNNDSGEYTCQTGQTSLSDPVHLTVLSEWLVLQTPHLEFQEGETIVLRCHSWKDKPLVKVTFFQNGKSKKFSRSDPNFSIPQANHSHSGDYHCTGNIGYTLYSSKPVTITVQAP
In words: SPR (Biacore); KD of SG1 / KD of variant.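 Note: relative to parent M103205H795-SG1 carrying the SG1 human heavy chain constant region.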 On the procedure:
as §1, §2

Assay [4] has as its target T4, cynomolgus monkey FcγRIIa3 extracellular domain, C-terminal His-tag (cynomolgus monkey).
T4 construct: also called cyno FcγRIIa3; cynoFcgRIIa3
T4 chain: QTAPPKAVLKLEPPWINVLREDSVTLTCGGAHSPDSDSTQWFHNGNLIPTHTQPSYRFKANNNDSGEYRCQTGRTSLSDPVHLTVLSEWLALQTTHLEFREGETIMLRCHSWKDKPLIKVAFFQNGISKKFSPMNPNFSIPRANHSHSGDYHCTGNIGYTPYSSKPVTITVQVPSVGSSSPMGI
The assay can be described thus: SPR (Biacore); KD of SG1 / KD of variant.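 Note: relative to parent M103205H795-SG1 carrying the SG1 human heavy chain constant region.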 Here is the method:
as §1, §2

For assay [5], the target named is T5, cynomolgus monkey FcγRIIa1 extracellular domain, C-terminal His-tag (cynomolgus monkey).
T5 construct: also called cyno FcγRIIa1; cynoFcgRIIa1
T5 chain: T4 chain with T95P, A121T, S128A, P133H, N135D
The assay can be described thus: SPR (Biacore); KD of SG1 / KD of variant. On the procedure:
as §1, §2

The target in assay [6] is T6, human FcγRIIaR extracellular domain, C-terminal His-tag (human, UniProt P12318 34-217).
T6 construct: also called human FcγRIIa (type R); FcgRIIaR
T6 chain: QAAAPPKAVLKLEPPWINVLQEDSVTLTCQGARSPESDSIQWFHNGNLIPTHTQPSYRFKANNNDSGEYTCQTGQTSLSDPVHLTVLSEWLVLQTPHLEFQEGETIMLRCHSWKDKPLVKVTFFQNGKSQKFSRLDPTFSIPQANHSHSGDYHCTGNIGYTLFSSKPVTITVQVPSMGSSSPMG
The assay can be described thus: SPR (Biacore); KD of SG1 / KD of variant. Here is the method: as §1, §2

Assay [7] addresses T7, cynomolgus monkey FcγRIIa2 extracellular domain, C-terminal His-tag (cynomolgus monkey).
T7 construct: also called cyno FcγRIIa2; cynoFcgRIIa2
T7 chain: T4 chain with I127K, K130N, P133H, R142Q
In words: SPR (Biacore); KD of SG1 / KD of variant. On the procedure:
as §1, §2

Assay [8] deals with T1, cynomolgus monkey FcγRIIIaS …. The assay can be described thus: SPR (Biacore), antibody captured, FcgR analyte.
Assay [9] concerns the target T2, cynomolgus monkey FcγRIIb extracellular …. In words: SPR (Biacore), antibody captured, FcgR analyte.
For assay [10], the target named is T8, human FcγRIIaH extracellular domain, C-terminal His-tag (human, UniProt P12318 34-217).
T8 construct: also called human FcγRIIa (type H); FcgRIIaH
T8 sequence: T6 chain with R134H
The assay can be described thus: SPR (Biacore), antibody captured, FcgR analyte.

For assay [11], the target named is T9, human FcγRIIIaV extracellular domain, C-terminal His-tag (human, UniProt P08637 17-208).
T9 construct: also called human FcgRIIIaV; FcgRIIIaV
T9 sequence (P08637 17-208 F176V): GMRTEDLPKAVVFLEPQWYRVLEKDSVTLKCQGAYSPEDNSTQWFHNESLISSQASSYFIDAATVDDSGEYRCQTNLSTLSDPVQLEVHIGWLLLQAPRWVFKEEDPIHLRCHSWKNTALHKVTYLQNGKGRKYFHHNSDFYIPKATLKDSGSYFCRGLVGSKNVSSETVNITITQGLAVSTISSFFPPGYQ
In words: SPR (Biacore), antibody captured, FcgR analyte.

Assay [12] has as its target T3, human FcγRIIb extracellular domain, …. The assay can be described thus: SPR (Biacore), antibody captured, FcgR analyte.
The target of assay [13] is T4, cynomolgus monkey FcγRIIa3 …. In words: SPR (Biacore), antibody captured, FcgR analyte.
In assay [14] the target is T5, cynomolgus monkey FcγRIIa1 …. The assay can be described thus: SPR (Biacore), antibody captured, FcgR analyte.
Assay [15] addresses T6, human FcγRIIaR extracellular domain, …. In words: SPR (Biacore), antibody captured, FcgR analyte.
Assay [16] addresses T7, cynomolgus monkey FcγRIIa2 …. In words: SPR (Biacore), antibody captured, FcgR analyte.
Assay [17] deals with T10, human FcγRIIIaV extracellular domain with C-terminal His-tag (human, UniProt P08637 17-208).
T10 construct: Expressed in FreeStyle 293 cells and purified; also called FcgRIIIaV; not shown: C-terminal His-tag
T10 sequence (P08637 17-208 F176V): as above
In words: SPR (Biacore); KD of SG1 divided by KD of the variant for this FcgR.

The target in assay [18] is T11, cynomolgus monkey FcγRIIa1 extracellular domain with C-terminal His-tag (cynomolgus monkey).
T11 construct: Expressed in FreeStyle 293 cells and purified; also called cyno FcγRIIa1; cynoFcgRIIa1; not shown: C-terminal His-tag
T11 chain: T4 chain with T95P, A121T, S128A, P133H, N135D
Described as above.

Assay [19] has as its target T12, cynomolgus monkey FcγRIIIaS extracellular domain with C-terminal His-tag (cynomolgus monkey, UniProt Q8SPW2 21-206 at identity 1.00)).
T12 construct: Expressed in FreeStyle 293 cells and purified; also called cyno FcγRIIIaS; cynoFcγRIIIaS; not shown: C-terminal His-tag
T12 chain: T1 chain
The assay is described as above.

In assay [20] the target is T13, human FcγRIIaR extracellular domain with C-terminal His-tag (human, UniProt P12318 34-217).
T13 construct: Expressed in FreeStyle 293 cells and purified; also called human FcγRIIa (type R); FcgRIIaR; not shown: C-terminal His-tag
T13 chain: T6 chain
The assay is described as above.

In assay [21] the target is T14, cynomolgus monkey FcγRIIa2 extracellular domain with C-terminal His-tag (cynomolgus monkey).
T14 construct: Expressed in FreeStyle 293 cells and purified; also called cyno FcγRIIa2; cynoFcgRIIa2; not shown: C-terminal His-tag
T14 chain: T4 chain with I127K, K130N, P133H, R142Q
The assay is described as above.

Assay [22] addresses T15, human FcγRIIaH extracellular domain with C-terminal His-tag (human, UniProt P12318 34-217).
T15 construct: Expressed in FreeStyle 293 cells and purified; also called human FcγRIIa (type H); FcgRIIaH; not shown: C-terminal His-tag
T15 sequence: T6 chain with R134H
Described as above.

Assay [23] addresses T16, cynomolgus monkey FcγRIIa3 extracellular domain with C-terminal His-tag (cynomolgus monkey).
T16 construct: Expressed in FreeStyle 293 cells and purified; also called cyno FcγRIIa3; cynoFcgRIIa3; not shown: C-terminal His-tag
T16 chain: T4 chain
Described as above.

Assay [24] deals with T17, cynomolgus monkey FcγRIIb extracellular domain with C-terminal His-tag (cynomolgus monkey).
T17 construct: Expressed in FreeStyle 293 cells and purified; also called cyno FcγRIIb; cynoFcγRIIb; not shown: C-terminal His-tag
T17 chain: T2 chain
Described as above.

The target of assay [25] is T18, human FcγRIIb extracellular domain with C-terminal His-tag (human, UniProt P31994 43-217).
T18 construct: Expressed in FreeStyle 293 cells and purified; also called humanFcgRIIb; not shown: C-terminal His-tag
T18 sequence: T3 sequence
The assay is described as above.

B1: M103205H795-MY144/M103202L889-SK1 (antibody, human IgG1, kappa)
heavy: QVTLKESGPVLVKPTETLTLTCTVSGIDLSHDDISWVRQAPGKGLEWVGIISYAGSTYYASWAKGRLTISKDTSKNQVVLTMTNMDPVDTATYYCARGVPAYSHGGDLWGQGTLVTVSSASTKGPSVFPLAPSSKSTSGGTAALGCLVKDYFPEPVTVSWNSGALTSGVHTFPAVLQSSGLYSLSSVVTVPSSSLGTQTYICNVNHKPSNTKVDKKVEPKSCDKTHTCPPCPAPELLNGPSVFLFPPKPKDTLMISRTPEVTCVVVDVSDEDPEVKFNWYVDGVEVHNAKTKPREEQYNSTYRVVSVLTVLHQDWLNGKEYKCKVSNKALPAPIEKTISKAKGQPREPQVYTLPPSREEMTKNQVSLTCLVKGFYPSDIAVEWESNGQPENNYKTTPMVLDSDGSFFLYSKLTVDKSRWQQGNVFSCSVMHEALHNHYTQKSLSLSP
light: DIVMTQSPATLSLSPGERATLSCTSSQSVYHANWLSWFQQKPGQPPKLLIYWASTLAYGVPSRFSGSGSGTDFTLTISSLQPEDAATYYCAGGYGGGRYAFGQGTKVEIKRTVAAPSVFIFPPSDEQLKSGTASVVCLLNNFYPREAKVQWKVDNALQSGNSQESVTEQDSKDSTYSLSSTLTLSKADYEKHKVYACEVTHQGLSSPVTKSFNRGEC
notes: P369M is read as a misprint of P396M
As a reminder, the Kd is the equilibrium constant for the complex coming apart. Consider B1, for which the “KD fold (SG1 = 1)” value is 0.16 fold in assay [1]; 4.1 fold in [2]; 6.2 fold in assay [3]; 4.5 fold in assay [4]; 3.6 fold in [5]; 0.8 fold in [6]. For the same molecule, the “KD fold (SG1 = 1)” value in assay [7] amounted to 5.7 fold. Besides, the Kd is 2.3 µM in assay [8]; 0.44 µM in [9]; 0.65 µM in assay [10]; 7.7 µM in [11]; 0.74 µM in assay [12]; 3.8 µM in assay [13]. Further, the Kd in [14] amounted to 0.89 µM; in [15] it was 13 µM; in [16] it was 0.82 µM.

B2: M103205H795-MY538 (Table 19; L235W/G236N/H268D/Q295L/K326T/A330K) / M103202L889-SK1 (antibody, human IgG1, kappa)
heavy: B1 heavy with L237W, Q297L, K328T, A332K, M398P
light: B1 light
notes: Fc variant of M103205H795-SG1, expressed with M103202L889-SK1; the text names MY518 for this set of substitutions; also called probably MY518 of the text
In the case of B2, the “KD fold (SG1 = 1)” value came to 0.04 fold in assay [17]; 3.6 fold in assay [18]; 0.09 fold in assay [19]; 1.6 fold in [20]; 5.7 fold in [21]; 0.8 fold in [22]. The entries for the “KD fold (SG1 = 1)” value in assay [23], in assay [24] and in assay [25] were 7.1 fold, 6.9 fold and 9.6 fold, respectively.
